Data as given in patent US20190367619A1 (ARGENX, published 2019).

B1: 2E11 scFv-human Fc (Fc fusion)
scFv: EVQLVESGGGLVQPGGSLRLSCAASGFTFSSYAMSWVRQAPGKGLEWVSPINSGSDSASYVDSVKGRFTISRDNAKNTLYLQMNSLKPEDTAVYYCAKARTSVVAGGMDYWGKGTLVTVSSGGGGSGGGGSGGGGSQSALTQPSAVSVSLGQTARITCQGGKFGSYYVSWYQQKPGQAPVMVIYKDNERPSGIPERFSGSSSGSTSTLTISGAQAEDEGTYYCQSGSSSDNIVFGGGTELTVF
notes: about 100 kDa on SDS-PAGE; also called 2E11 ScFv-hFc; not shown: CH2-CH3 constant domains of human IgG1 (vector pUPEX50)
B2: 4B10 scFv-human Fc (Fc fusion)
scFv: QLQLVESGGGLVQPGGSLRLSCAASGFTFSNYWMYWVRQAPGKGLEWVSAIDVGGGTTDYAGSVKGRFTISRDNTKSTVYLQMNTLKPEDTALYYCLRGGSYYGGMDYWGKGTLVTVSSGGGGSGGGGSGGGGSQSALTQPSAVSVSLGQTARITCQGAKLGRYYGIWYQQKPGQAPVQVIYGDSNRPSGIPERFSGSSSGGTATLTISGAQAEDEADYYCQSYESSTSPVFGGGTHLTVL
notes: about 100 kDa on SDS-PAGE; also called 4B10 ScFv-hFc; not shown: CH2-CH3 constant domains of human IgG1 (vector pUPEX50)
B3: 4G05 scFv-human Fc (Fc fusion)
scFv: QLQVVESGGGLVQTGGSLTLSCTTSGFTFSRYWMIWVRQAPGKGLEWVSSIYNDGGNTYYADSVKGRFTISRDNSENTLYLQMNSLKSEDTAVYYCAKLKAAYYGMDYWGKGTLVTVSSGGGGSGGGGSGGGGSSSALTQPSAVSVSLGQTARITCQGANLGRYYGIWYQQKPGQAPVQVIYGDSNRPSGIPERFSGSSSGGTATLTISGAQAEDEADYYCQSYESSTSPVFGGGTHLTVL
notes: about 100 kDa on SDS-PAGE; also called 4G05 ScFv-hFc; not shown: CH2-CH3 constant domains of human IgG1 (vector pUPEX50)
B4: 4H10 scFv-human Fc (Fc fusion)
scFv: QVQLVESGGGLVQPGGSLRLSCAASGFTFDDYAMSWVRQAPGKGLEWVSAISWNGGSTYYAESMKGRFTISRDNAKNTLYLQMNSLKSEDAAVYYCAKDLSASGSYYHTFGSWGQGTQVTVSSGGGGSGGGGSGGGGSQAGLTQPPSVAGTLGKTVTISCAGTSSDVGYGDYVSWYQHIPGTAPKLLIYKVKTRASGIPDRFSGSKSGNTASLTISGLQSGDESDYYCASYKNGGTAVFGGGTHLTVL
notes: about 100 kDa on SDS-PAGE; also called 4H10 ScFv-hFc; not shown: CH2-CH3 constant domains of human IgG1 (vector pUPEX50)
B5: 7B07 Fab (Fab, V domains shown)
VH: QVQLVESGGGLVQPGGSLRLSCAASGFTFRSYDMSWVRQAPGKGPEWVSAIKNGGGITYYADSVKGRFTISRDNAKNTLYLQMNSLKPEDTAVYYCATTHGIGTLGFGSWGQGTQVTVSS
VL: SYELTQSASVSVALTQTAKITCDGNNIGSKSAQWYQQKPGQAPALVIYADEYRPEGIPERFSGSNSGNTATLIISGAQAEDEADYYCQVWDGSAAVFGRGTHLTVL
notes: Fab with human CH1 (including part of the hinge region) and human lambda constant domain; also called 7B7; 7B07 hFab
B6: 8H11 Fab (Fab, V domains shown)
VH: ELQLVESGGGLVQPGGSLRLSCAASGFTFSTNYMNWVRQAPGKGLEWVSGITSGGGRTYYADSVKGRFTISRDNAKNTLYLQMNSLKPEDTALYYCARTDHAWLDAWGQGTLVTVSS
VL: QAGLTQPPSVSGTLGKTVTISCAGTSSDVGYGNYVSWYQQLPGTAPKLLIYAVSTRASGIPDRFSGSKSGNTASLTISGLLSEDEADYYCASYRSSNNYVFGGGTKLTVL
notes: Fab with human CH1 (including part of the hinge region) and human lambda constant domain; also called 8H11 hFab

What was measured:
[1] = target: T1, human galectin-10-His (recombinant human galectin-10 with TEV-cleavable N-terminal His-tag) (human); experiment: ELISA, scFv-hFc on coated galectin-10-His (0.2 ug/mL)
T1 construct: SEC-MALLS: dimer in solution; also called Gal10-His; humanGal10-His
T1 chain: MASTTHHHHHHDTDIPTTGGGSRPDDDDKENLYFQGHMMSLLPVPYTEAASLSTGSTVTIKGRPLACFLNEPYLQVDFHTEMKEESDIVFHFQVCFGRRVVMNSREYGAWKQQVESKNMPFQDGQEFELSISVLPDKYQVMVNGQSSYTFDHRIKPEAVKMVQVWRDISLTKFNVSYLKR
Procedure: In a similar setup to that used during the initial screening, the relative binding properties of the 12 scFv-human Fc clones were analyzed by ELISA. Briefly, a Maxisorp plate was coated with galectin-10-His at 0.2 μg/mL and blocked with casein, before being incubated with a serial dilution of the scFv-human Fc fusion molecules. After several washing steps, detection of the bound scFv-human Fc was carried out with an anti-human Fc-HRP antibody. Absorbance was measured at 450 nm (reference at 620 nm) with Tecan instrument. Finally, the raw data (OD values) were plotted on GraphPad Prism 7.01. The EC50 value of each compound was calculated with a non-linear regression (log(agonist) vs. response Variable slope (four parameters)).

[2] = target: T1, human galectin-10-His (recombinant …); experiment: SPR Biacore T3000, scFv-hFc captured by anti-human Fc, galectin-10-His as analyte
Procedure: In order to determine the binding properties (on-rate/off-rate) of the scFv-human Fc panel, their binding capacity to galectin-10 was analyzed on Biacore T3000. For this purpose, a capture approach was set up. A CM5 Chip was coated with polyclonal anti-human Fc at 8000 RU, then a fixed concentration of the scFv-human Fc panel (1.5 μg/mL), diluted in HBS-EP pH7.4, were captured to reach a binding signal around 150 RU. Finally, a serial dilution of galectin-10-His (serial dilution, 1 over 2 from 5 μg/mL, 6 points of dilution) diluted in HBS-EP pH7.4 was injected. Raw data were analyzed via BIA evaluation software with a blank subtraction (4-3). The kd/KD and Rmax of each scFv-human Fc for galectin-10-His was determined using the Fit Kinetics simultaneous ka/kd/Binding with mass transfer/Local Rmax on BIA evaluation software.

[3] = target: T2, TEV-cleaved wild-type recombinant human galectin-10 (soluble, in Fab complexes, or as recombinant galectin-10 … (human, UniProt Q05315 1-142)); experiment: cell-based or functional assay
T2 sequence: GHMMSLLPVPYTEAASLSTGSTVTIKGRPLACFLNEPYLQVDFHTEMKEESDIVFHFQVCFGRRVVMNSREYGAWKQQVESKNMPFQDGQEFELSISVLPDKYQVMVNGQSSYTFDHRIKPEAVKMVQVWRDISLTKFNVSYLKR

[4] = target: T3, recombinant human galectin-10, TEV-cleaved (human, UniProt Q05315 1-142); experiment: cell-based or functional assay
T3 sequence: T2 sequence

human galectin-10-His = target: T4, human galectin-10-His (human); experiment: ELISA, galectin-10-His coated at 1 ug/mL, Fab
T4 construct: The last M of the tag may be Met1 of galectin-10; also called humanGal10-His; hGal10
T4 chain: T1 chain
Procedure: The binding capacity of the lead anti-galectin-10 Fabs was tested by binding ELISA. Briefly, a Maxisorp plate was coated overnight with 1 μg/mL of human galectin-10-His. Then a serial dilution of each clone (from 4 μM, dilution 1/4, 12 points of dilutions) was incubated on coated galectin-10. After several washing steps, detection of the bound Fab was carried out with an anti-human IgG Fab specific-peroxidase. Absorbance was measured at 450 nm (reference at 620 nm) with Tecan instrument.

| Bmax (OD values) [1] | EC50 [1] | Kd [2] | koff [2] | 100% Solubilization of CLC (Conc uM) [3] | 50% crystal dissolution (min), 50 uM [4] | 90% crystal dissolution (min), 50 uM [4] | Bmax (human galectin-10-His) | EC50 (human galectin-10-His) | Binder |
| --- | --- | --- | --- | --- | --- | --- | --- | --- | --- |
| 1.43 OD | 0.14 nM | 1.16 nM | 0.0111 s⁻¹ | 4.36 µM | – | – | – | – | B1 |
| 1.28 OD | 0.08 nM | 1.94 nM | 0.0128 s⁻¹ | 6.14 µM | – | – | – | – | B2 |
| 3.03 OD | 0.09 nM | 0.911 nM | 0.0437 s⁻¹ | 4.36 µM | – | – | – | – | B3 |
| 1.3 OD | 0.2 nM | 1.55 nM | 0.00277 s⁻¹ | 6 µM | – | – | – | – | B4 |
| – | – | – | – | – | 15.1 min | 54.1 min | 0.65 OD | 24.4 nM | B5 |
| – | – | – | – | – | 48.5 min | > 120 min | 0.95 OD | 24.3 nM | B6 |
